Experimental data reported in US9175077B2, “Nucleic acids encoding biologically active polypeptides derived from a novel early stage pregnancy factor designated maternin (MA)” (NOBEL BIOSCIENCES LLC, priority 1999, dated 2015).
Where two headings read alike, the source gives them in different places.

Columns and labels:
[1] = Lethal dose taxol in Sprague-Dawley rats; type: in vivo
Method: Sprague-Dawley rats were given taxol in large lethal doses, 4.5 mg in one I.P. inoculation. […] Bone marrow suppression can also be a side effect of the clinical use of taxol.^179 As in the radiation experiments, either MA, pMA, MAS1, or various polypeptide controls were given subcutaneously only in two doses 24 and 48 hrs before taxol treatment or were given 3×/week for 4 weeks. […]

[2] = system: HIV-1 gene expression; assay: HIV-1 transgenic mice, pups feeding from treated mothers; type: in vivo
Text: The transgenic mice contain 5.1 kb of the HIV-1 proviral genome, lacking gag and pol genes and 2.3 kb of vector.^172 The newly developed transgenic rat contains the same HIV-1 sequences and vector.
Twenty-four hours after birth the mothers were either inoculated subcutaneously daily for 10 days or received an implanted osmotic pump delivering 30-150 pmoles of either native or synthetic MA or pMA. Various control polypeptides were used at equimolar or vast molar excess. The newborn pups were then allowed to feed from the foster mother breast milk over the entire period. Since the animals are at risk from needle inoculation, breastfeeding was the chosen route for MA administration.
In these experiments total RNA was extracted from samples of skin RNA206 10 days after birth of MA treated and untreated mice. One ug of RNA was reverse transcribed into cDNA using random hexamer primer and […] reverse transcriptase (Life Technologies, Inc.) in a final vol. Of 30 ul. Three ul of each reaction was used for PCR amplification of the HIV-1 gene sequences (env, tat, nef, and rev) as described […], and glyceraldehyde 3-phosphate dehydrogenase (GAPDH) was amplified from each sample for normalization. After 25 cycles, 10% of the products were resolved by electrophoresis on 2% agarose gels, transferred to nitrocellulose membranes by Southern blotting, and hybridized to fluorescein isthiocyanate-labeled oligonucleotide probes complementary to internal sequences of the amplicons […]. Bound probes were detected by chemiluminescence (Amersham) and relative mRNA levels determined by densitrometry after normalization with GAPDH mRNA levels.

[3] = system: human tumor cells; type: cell-based; settings: controls at equimolar or 5 to 10× greater concentrations
Method: The anti-tumor activities of MA were assessed in several in vitro and in vivo systems using published methods.^166 In vitro studies were with a wide variety of human tumor cell lines as well as short-term cultures of cells from biopsy samples obtained from tumors. The assays included effects of MA on colony formation, cell number and viability (trypan blue), and apoptosis. Four measures of microscopy were used. In vivo studies included the effects of MA on tumors induced in immunodeficient mice by xenotransplanted various human neoplastic cells, spontaneous neoplasms of immuno-competent mice and rats, and a few standard tumors in immuno-competent mice. Representative examples are presented.
Cells (5×10^5/ml) were seeded in modified Eagle's medium supplemented with 10% FCS, 10% conditioned medium form PHA stimulated human lymphocytes, 2 mM glutamine in 0.8% V/V methylcellulose with or without various treatments in a final volume of 1.0 ml. Then 0.1 ml aliquots were seeded in 96 well flat bottom microtest plates and incubated at 37° C. in 5% CO2 in air for 7 days. Aggregates containing 50 cells or more were scored as colonies.
5×10^5 cells were seeded in triplicate on 24 gelatin coated wells in conditions as described for Panel A and treated with the indicated test materials. After 3 days the cells were dislodged from their monolayers by gentle pipetting with cell dissociation buffer (Life Technologies), counted after trypan blue staining and aliquots examined for Annexin V staining by indirect IFA […].
Studies of the anti-tumor cell effects of MA were extended to other carcinomas, melanoma, some hematopoietic tumors, and carcinomas of the colon, prostate, breast, lung, brain, pancreas, and kidney-using cell lines from these tumors. […] Many more types of tumor cells were studied utilizing other assays (see below).

[4] = Lethally irradiated rats and mice; settings: higher dose, treated at time of radiation, 3×/week for 4 weeks; over 100 days
Method: In order to determine in vivo relevance of the prohematopoietic effects of MA treated rats and mice under several conditions of bone marrow suppression. First, the effects of native MA and pMA and of the synthetic 15-mer MAS1 were treated for their capacity to reduce or prevent the effects of lethal doses of gamma irradiation. […] MA, pMA, MAS1, and various control polypeptides were given 48 and 24 hrs before, during, or 24 hrs after radiation. The animals treated prior to radiation received either 100 ng vs. 1 ug (rats) or 50 ng vs. 500 ng (mice) as 2 subcutaneous injections.
It is not yet possible to determine the precise molar dose of pMA because of less certainty on its full-length sequence.
To ascertain that the MA effect did promote hematopoiesis in these animals we examined the bone marrow for cellularity and colony formation and determined peripheral blood counts.

[5] = system: primary human tumor cells; assay: Short-term cultured primary human tumor cells, growth and apoptosis; type: cell-based; settings: 200 ng/ml; 3 days culture; 10% serum
Text: Because cell lines might be more susceptible to growth inhibition and apoptosis, the effects of MA on short-term cultured human tumor cells were investigated. The cells were obtained from biopsied specimens and immediately cultured (primary cultures). The results were similar to the results with tumor cell lines. […] FIG. 3, Panels A and B are representative results with primary breast and prostate carcinomas respectively. These pro-apoptotic effects of MA on human tumor cells were with 10% serum rather than the lower concentrations sometimes used to make cells more susceptible to apoptosis.
More extensive studies of primary human tumor cells were carried out utilizing confocal microscopy.
With the exception of the kidney carcinoma, which was a biopsy sample direct from the tumor, the samples were from pleural effusions which developed after metastasis to the lung. The breast, prostate, and colon carcinomas were freshly obtained and immediately cultured, whereas the lung and kidney carcinomas went through 22 and 18 passes respectively before they were used in these studies. All cells were examined after 3 days culture in the presence or absence of MA (200 ng/ml) or other treatments. […]

[6] = target: T1, hCG receptor (Homo sapiens, UniProt P22888); settings: cited from earlier work
T1 construct: host or cells: unspecified cells
T1 sequence (P22888 27-699): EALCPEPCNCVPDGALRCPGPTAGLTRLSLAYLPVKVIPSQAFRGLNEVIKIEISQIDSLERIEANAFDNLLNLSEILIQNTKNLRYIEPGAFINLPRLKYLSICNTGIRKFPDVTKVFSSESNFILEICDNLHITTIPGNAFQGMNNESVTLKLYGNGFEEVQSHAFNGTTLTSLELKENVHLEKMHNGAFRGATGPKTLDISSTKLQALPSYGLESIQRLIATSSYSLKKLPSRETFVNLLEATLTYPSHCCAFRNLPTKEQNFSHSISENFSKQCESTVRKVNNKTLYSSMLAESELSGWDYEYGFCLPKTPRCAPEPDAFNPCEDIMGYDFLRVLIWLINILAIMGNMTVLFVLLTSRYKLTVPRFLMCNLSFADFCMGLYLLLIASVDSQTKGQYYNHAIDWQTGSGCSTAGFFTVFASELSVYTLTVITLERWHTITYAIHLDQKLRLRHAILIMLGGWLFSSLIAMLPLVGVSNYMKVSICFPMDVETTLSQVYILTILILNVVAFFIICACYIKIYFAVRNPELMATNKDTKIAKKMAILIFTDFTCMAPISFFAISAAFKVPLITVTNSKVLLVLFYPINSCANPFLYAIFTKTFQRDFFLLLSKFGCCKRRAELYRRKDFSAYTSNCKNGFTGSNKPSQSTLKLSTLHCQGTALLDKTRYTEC

[7] = Summary of active and inactive peptides / overall biological activities
[8] = system: HIV-1; settings: controls at similar, equimolar or higher concentrations
Method: Virus (MOI of 0.001) was added to 10^6 cells in RPMI-1640 with 10% FCS. One hour later the various polypeptides were added once. The cells cultured for 3 days with 5 ug PHA and 20 i.m. of II-2/ml at 37°, after which virus was estimated by determining p24 (HIV-1) or p27 (SIV) (Organon-Teknika).
The effect of native and synthetic MA on HIV-1 infection in vitro was evaluated using PHA and II-2 stimulated primary peripheral blood cells (PBMC), CD4+ T-cells enriched fractions from PBMC, and CD14+ macrophage enriched fractions. Infection was with HIV-1 IIIB (PBMC and CD4+ T-cells), HIV-1 Ba-L (macrophages), and two primary HIV-1 isolates not passaged in any cell line (PBMC).

[9] = system: human carcinoma and sarcoma cells (PC3, KS Y-1); assay: Xenotransplanted human tumors in immunodeficient mice; type: in vivo; settings: controls at equivalent and higher molar concentrations
Method: In the first set of experiments, MA was tested against tumors formed by xenotransplantation of various human carcinoma and sarcoma cells in immunodeficient mice. […] […] Three different synthetic forms of MA were used: full length (MAS3) and the previously described MAS1 and MAS2 (Panel C).

[10] = system: HIV; settings: higher doses increased viral production; cited from earlier work
[11] = system: hematopoietic progenitors (CFU-GEMM, BFU-e, CFU-GM, T-CFC); assay: Hematopoietic colony formation assays; type: cell-based, human
Text: Hematopoietic colony formation assays with bone marrow or cord blood of normal human volunteers and bone marrow of monkeys, rats, and mice were utilized. The assays are conventional measurements of the number of progenitors for erythrocytes, granulocytes, macrophages, platelets, and T-cells. The culture conditions included growth factors that would give near optimum growth for the particular lineage. These factors included II-3, PHA-lymphocyte conditioned medium, erythropoietin (EPO), II-6, and GM-CSF. The number of colonies developing in methylcellulose reflects the number of progenitor cells, and the percent increase is a measure of the effect of different polypeptides to increase colony number above the maximum obtained with the indicated known growth factors.
The latter is a less conventional assay, and details on the methods involved are described elsewhere.^178

pMA: natural peptide 38 amino acids in length, β-hCG 55-92 (SEQ ID NO: 3) (VVCNYRDVRFESIRLPGCPRGVNPVVSYAVALSCQCAL; listed as Homo sapiens)
survival of pretreated animals ([1]; low dose, two doses 24 and 48 hrs before taxol): Sixty-percent
survival maintained to day 80 ([1]; therapy maintained 28 days, high dose (1000 ng)): ~80%
survival maintained to day 80 ([1]; therapy maintained 28 days, low dose (100 ng)): about 60%
survival on day 5 ([1]; therapy maintained 28 days, low or high dose): 100%
weight over the ten day period ([2]; 30-150 pmoles): quadrupled their weight
survival / development of pups (qualitative) ([2]; mothers treated, pups breast fed): survived
HIV-1 viral expression in tissues ([2]; mouse, in vivo): marked inhibition of viral expression
inhibition of growth / induction of apoptosis of neoplastic cells [3]: induce apoptotic death
survival [4]: 100%
growth inhibition and apoptosis of primary human tumor cells [5]: effective

B1: β-hCG: β-chain of human chorionic gonadotropin, AA 1-145 (SEQ ID NO: 1) (protein, listed as Homo sapiens)
chain: SKEPLRPRCRPINATLAVEKEGCPVCITVNTTICAGYCPTMTRVLQGVLPALPQVVCNYRDVRFESIRLPGCPRGVNPVVSYAVALSCQCALCRRSTTDCGGPKDHPLTCDDPRFQDSSSSKAPPPSLPSPSRLPGPSDTPILPQ
binding to the hCG receptor [6]: neither β-hCG or any of its degradation products significantly bind
effect on survival (qualitative) ([1]; even at high doses): no effect
HIV-1 viral expression in tissues ([2]; mouse, in vivo): high expression
mice dead by day 10 ([2]; mouse, in vivo): 10 of 10
biological activities in vitro or in vivo in the experimental systems described [7]: no activity
inhibition of HIV replication (qualitative) [8]: No inhibition
inhibition of HIV replication (qualitative) ([8]; listed as rβ-hCG): no effect
inhibition of growth / induction of apoptosis of neoplastic cells [3]: no inhibition of growth or induction of apoptosis
effect on xenotransplanted tumor (qualitative) [9]: no effect
doses reducing HIV production in monocytes [10]: ≤ 10 µg/mL
hematopoietic effects in vivo and in vitro [11]: None
effect on colony number (qualitative) ([11]; equimolar or higher concentrations): no significant effect above background
